# In US20250025566A1, “PEPTIDE-DRUG CONJUGATES FOR TREATMENT OF NEURODEGENERATIVE DISEASES” (KØBENHAVNS UNIVERSITET, priority 2021, published 2025):
# Square brackets hold non-standard residues; d marks the D form. Side chains are listed from the residue outwards. Ends that are not written are not given here. * marks the point of attachment. memantine = CC12CC3CC(C)(C1)CC(N*)(C3)C2; disulfide linker = not defined here; Pen = CC(C)(S)[C@H](N)C(=O)O
# Experiments:
# [1] = Body weight progression of 5×FAD Alzheimer's disease mouse model; format: in vivo; conditions: female 5×FAD mice, 100 nmol/kg/day subcutaneous daily, 49 days
# Protocol: Female wild-type (WT) control mice+vehicle treatment (n=12), 5×FAD AD mice+vehicle treatment and 5×FAD AD mice+GLP-1/memantine (100 nmol/kg/day) treatment were subcutaneously injected daily for 49 days following which brain regions of the mice were dissected and saved for ex vivo analyses.
# (§1) Experiments were conducted using female 5×FAD (Jackson Laboratory, 34840-JAX) mice kept on a chow diet (Altromin #1310, Lage, Germany). The pharmacological studies were initiated at 8-week of age and the mice treated with once-daily subcutaneous injections of GLP-1/memantine or saline (control) for 49 days with weekly measurements of body weight. Specifically, compounds were administered at a volume of 5 μL per gram, mice group-housed (n=2-5 mice per cage) and maintained on a 12-hour light-dark cycle (light 6 am-[…]) at a temperature of 21-23° C. For week 5 and 6, the mice were single-housed and transferred to a digitally ventilated cage system. For week 7, the mice were re-grouped in groups identical to weeks 0 to 4. Finally, mice were euthanized on day 49, tissues harvested, snap-frozen using liquid nitrogen and stored at −80° C. prior to analyses.
# [2] = tested on: pro-inflammatory markers IL-1b, IL-6 and TNF-α; test: Gene expression of pro-inflammatory markers in hippocampus of 5×FAD mice (qPCR); format: in vivo; conditions: once-daily subcutaneous, 49 days
# Protocol: Expression (as measured by mRNA) of pro-inflammatory markers, IL-1b, IL-6 and TNF-α increased across the board in the 5×FAD AD mouse model.
# as §1, with “For week 5 and 6, the mice were single-housed and transferred to a digitally ventilated cage system. For week 7, the mice were re-grouped in groups identical to weeks 0 to 4. Finally, mice were euthanized on day 49, tissues harvested, snap-frozen using liquid nitrogen and stored at −80° C. prior to analyses.” left out
# Hippocampal tissue from Example 3 was homogenized in a Trizol reagent (QIAzol Lysis Reagent, Qiagen) using a stainless steel bead (Qiagen) and a TissueLyser LT (Qiagen) for 3 min at 20 Hz. […] After RNA extraction, RNA content was measured using a NanoDrop 2000 (Thermo Fisher) and 500 ng of RNA was converted into cDNA by mixing FS buffer and DTT (Thermo Fisher) with Random Primers (Sigma-Aldrich) and incubated for 3 min at 70° C. followed by addition of dNTPs, RNase out, Superscript III (Thermo Fisher) and placed in a thermal cycler for 5 min at 25° C., 60 min at 50° C., 15 min at 70° C., and kept at −20° C. until further processing. […]
# 5×FAD mice = test: Number of amyloid plaques in frontal cortex and hippocampus of 5×FAD mice (Thioflavine S); format: in vivo; conditions: once-daily subcutaneous, 49 days, vs saline
# Source text: Amyloid plaques are commonly found in subjects suffering from Alzheimer's and is caused by abnormal levels of the naturally occurring protein beta-amyloid 42 which clump together to form plaques that collect between neurons and disrupt cell function. Thus, patients suffering from Alzheimer's display elevated levels of amyloid plaques. […] Thus, without being bound by any particular theory, the inventors postulate that the conjugated molecule according to the present invention has a neuroprotective role.
# Experiments were conducted using female 5×FAD (Jackson Laboratory, 34840-JAX) mice kept on a chow diet (Altromin #1310, Lage, Germany). The pharmacological studies were initiated at 8-week of age and the mice treated with once-daily subcutaneous injections of GLP-1/memantine or saline (control) for 49 days. Specifically, compounds were administered at a volume of 5 μL per gram, mice group housed (n=2-5 mice per cage) and maintained on a 12-hour light-dark cycle (light 6 am-[…]) at a temperature of 21-23° C. For week 5 and 6, the mice were single-housed and transferred to a digitally ventilated cage system. […] Every 6th slide through hippocampus (bregma: −2.80 mm to −0.94 mm) and frontal cortex (bregma: 0.14 mm to 2.96 mm) were collected and stained with Thioflavine S to quantify amyloid plaque deposition.
# [3] = tested on: primary rat hippocampal neurons; test: Neuroprotection in primary hippocampal neurons (NMDA-induced neurotoxicity, LDH activity); format: cell-based; conditions: NMDA 100 μM, 24 hours, GLP-1 1 μM
# Protocol: Primary rat hippocampal neurons were incubated with either buffer, NMDA (to induce neurotoxicity), NDMA+GLP-1 or NMDA+GLP-1/memantine conjugate for 24 hours. Media was harvested and analysed for Lactate Dehydrogenase (LDH) activity as an indirect measure of cellular cytotoxicity.
# Primary cultures of hippocampal neurons were prepared from Sprague-Dawley rat fetuses (E18) and cells were diluted in Neurobasal medium containing B27 supplement (5×10^5 cells/mL) in a Poly-L-Lysin pre-coated 24-well cell culture plate. The neurons were kept at 37° C. in a humidified incubator with 5% C02 atmosphere. After 8 days in vitro, cultures were treated with either vehicle, NMDA (100 μM), NMDA+GLP-1 (1 μM) or NMDA+GLP-1/Memantine for 24 hours. Cell culture medium (50 μL) was dispatched to a 96-well ELISA plate and analyzed for Lactate Dehydrogenase (LDH) activity (CytoTox-96, Nonradioactive Cytotoxicity assay, Promega) according to the manufacturer's protocol.
Substance,body weight progression [1],"expression (mRNA) of pro-inflammatory markers IL-1b, IL-6 and TNF-α in hippocampus [2]",number of amyloid plaques in frontal cortex and hippocampus (5×FAD mice),NMDA-induced neurotoxicity (Lactate Dehydrogenase activity in media as indirect measure of cytotoxicity) [3]
"GLP-1 Pen40/memantine: GLP-1 peptide of SEQ ID NO:1 with Pen40, conjugated to memantine via disulfide linker (penicillamine linked) (HAEGTFTSDVSSYLEEQAAKEFIAWLVKGGPSSGAPPPS[Pen]([disulfide linker-memantine])-NH2; reading uncertain; listed as Homo sapiens)",elicits only a transient weight loss,completely abolishes the induction of inflammation,reduced formation of amyloid plaques,prevents the NMDA-induced neurotoxicity
"GLP-1: GLP-1 peptide alone, the unconjugated peptide control in the neuroprotection test [reference compound]",–,–,–,"but not GLP-1 peptide alone, prevents the NMDA-induced neurotoxicity"
